These are literature values, as cited in article PMC2879707.

What is called Kd is a measure of binding affinity in units of concentration.

The target of this data set is F-actin (Oryctolagus cuniculus) (UniProt P68135).

espin (from UniProt Q63618): the Kd was 150 nM.
